From the Immune Epitope Database (IEDB) come the findings set out here.

Assay [1] has as its target HLA-C*12:03. The experiment in a line: IEDB peptide-MHC binding, purified MHC/direct/fluorescence; filed as Kd, often an IC50 or EC50 that approximates it; ≥ and ≤ were set here for values at or beyond the usual limits of such assays.
Assay [2] concerns the target HLA-A*26:02. Described as above.
The target in assay [3] is HLA-A*26:01. The description is as above.
Assay [4] concerns the target HLA-B*46:01. The experiment in a line: IEDB peptide-MHC binding, purified MHC/competitive/fluorescence; filed as Kd, often an IC50 or EC50 that approximates it; ≥ and ≤ were set here for values at or beyond the usual limits of such assays. The note with it: source organism: Giardia lamblia ATCC 50803.
The target of assay [5] is HLA-B*40:01. The experiment in a line: IEDB peptide-MHC binding, purified MHC/direct/fluorescence; filed as Kd, often an IC50 or EC50 that approximates it; ≥ and ≤ were set here for values at or beyond the usual limits of such assays.
Assay [6] concerns the target HLA-B*18:01. The description is as above. The note with it: source organism: Mycobacterium tuberculosis.
For assay [7], the target named is HLA-B*51:01. Described as above. Conditions: source organism: Mycobacterium tuberculosis.
For assay [8], the target named is HLA-B*58:01. The description is as above.
Assay [9] has as its target HLA-A*02:01. The description is as above.
Assay [10] concerns the target HLA-B*08:02. Described as above.
Assay [11] addresses HLA-A*31:01. Described as above.
The target of assay [12] is HLA-A*11:01. The description is as above. Conditions: source organism: Mycobacterium tuberculosis.
Assay [13] has as its target HLA-B*15:01. The assay is described as above. Conditions: source organism: Mycobacterium tuberculosis.
The target of assay [14] is HLA-B*46:01. The description is as above.
The target of assay [15] is HLA-B*15:17. Described as above.
The target in assay [16] is HLA-A*03:01. The assay is described as above.
Assay [17] addresses HLA-B*15:09. Described as above.
Assay [18] concerns the target HLA-A*69:01. Described as above.
Assay [19] has as its target HLA-B*48:01. The description is as above.
Assay [20] addresses HLA-B*57:01. The assay is described as above.
Assay [21] addresses HLA-B*38:01. The assay is described as above.
In assay [22] the target is HLA-A*01:01. Described as above.
For assay [23], the target named is HLA-B*27:05. Described as above.
For assay [24], the target named is HLA-B*08:01. The description is as above.
In assay [25] the target is HLA-B*39:01. The assay is described as above.
In assay [26] the target is HLA-A*31:01. The experiment in a line: IEDB peptide-MHC binding, purified MHC/competitive/fluorescence; filed as Kd, often an IC50 or EC50 that approximates it; ≥ and ≤ were set here for values at or beyond the usual limits of such assays. The note with it: source organism: Mycobacterium tuberculosis variant bovis BCG str. Pasteur 1173P2.
Assay [27] concerns the target HLA-B*57:01. Described as above. Conditions: source organism: Mycobacterium tuberculosis variant bovis BCG str. Pasteur 1173P2.
Assay [28] concerns the target HLA-B*08:01. The assay is described as above. The note with it: source organism: Mycobacterium tuberculosis variant bovis BCG str. Pasteur 1173P2.
Assay [29] has as its target HLA-B*40:01. The assay is described as above.
Assay [30] has as its target HLA-B*15:01. Described as above.
Assay [31] has as its target HLA-C*06:02. The experiment in a line: IEDB peptide-MHC binding, purified MHC/direct/fluorescence; filed as Kd, often an IC50 or EC50 that approximates it; ≥ and ≤ were set here for values at or beyond the usual limits of such assays. The note with it: source organism: Yellow fever virus.
The target in assay [32] is HLA-C*14:02. Described as above. Conditions: source organism: Yellow fever virus.
For assay [33], the target named is HLA-C*07:02. Described as above. Conditions: source organism: Yellow fever virus.
In assay [34] the target is HLA-C*15:02. Described as above. The note with it: source organism: Yellow fever virus.
The target of assay [35] is HLA-A*11:01. The experiment in a line: IEDB peptide-MHC binding, purified MHC/competitive/fluorescence; filed as Kd, often an IC50 or EC50 that approximates it; ≥ and ≤ were set here for values at or beyond the usual limits of such assays. Conditions: source organism: Influenza A virus (A/duck/Hong Kong/3096/99(H6N2)).
For assay [36], the target named is HLA-B*39:01. The assay is described as above. The note with it: source organism: Shigella boydii CDC 3083-94.
Assay [37] deals with HLA-A*02:01. Described as above. Conditions: source organism: Shigella boydii CDC 3083-94.
Assay [38] concerns the target HLA-B*07:02. The description is as above. Conditions: source organism: Shigella boydii CDC 3083-94.
[39] abbreviates: source organism: Giardia lamblia ATCC 50803.
Where [40] appears, read: source organism: Mycobacterium tuberculosis.
The mark [41] stands for this setting: source organism: Mycobacterium tuberculosis str. Haarlem.
Setting [42] is: source organism: Escherichia coli 536.
[43] abbreviates: source organism: Yellow fever virus.
Where [44] appears, read: source organism: Influenza A virus(A/swine/Shandong/fZC/2003(H9N2)).
Setting [45] is: source organism: Influenza A virus (A/swine/Miyagi/5/2003(H1N2)).
Where [46] appears, read: source organism: Shigella boydii CDC 3083-94.

pKd: −log10 of the molar value.

As usually defined, the pKd is −log10 of the Kd, conventionally taken in molar units. Read a high pKd as a small Kd. With YSAEALLPY, the negative logarithm of the Kd (pKd) in assay [1] (setting [39]) is 7.89; in assay [2] (setting [39]), 8.52; in [3] (setting [39]), 8.05; in assay [4], 7.26.
As for VPRDRNGTF, the pKd is ≤ 4.70 in assay [5] (setting [40]); ≤ 4.70 in assay [6]; ≤ 4.70 in [7]; ≤ 4.70 in assay [8] (setting [40]); ≤ 4.70 in assay [9] (setting [40]); 4.72 in assay [10] (setting [41]). In addition, the negative-log Kd (pKd) in assay [11] (setting [40]), in [12], in assay [13], in assay [14] (setting [40]), in assay [15] (setting [40]) and in [16] (setting [40]) was ≤ 4.70 each time. Further, the pKd in assay [17] (setting [41]), in assay [18] (setting [40]), in assay [19] (setting [40]), in [20] (setting [40]), in assay [21] (setting [41]) and in assay [22] (setting [40]) was ≤ 4.70 in each case. The values for the pKd in assay [23] (setting [40]) and in assay [24] (setting [41]) were ≤ 4.70 and 6.20, respectively.
Take RIRSERPAF: the negative-log Kd (pKd) in [25] (setting [41]), in assay [5] (setting [40]), in assay [6], in assay [7], in [8] (setting [40]) and in assay [9] (setting [40]) was ≤ 4.70 throughout. Further, the negative-log Kd (pKd) in assay [12] was ≤ 4.70; in assay [13], 7.56; in assay [14] (setting [40]), ≤ 4.70; in assay [16] (setting [41]), 6.42; in [17] (setting [41]), ≤ 4.70; in [18] (setting [40]), ≤ 4.70. The pKd in assay [19] (setting [40]) is ≤ 4.70; in assay [22] (setting [40]) it was ≤ 4.70; in [23] (setting [40]), ≤ 4.70; in [26], 6.01; in assay [27], 6.03; in assay [28], 5.65.
Regarding YEDEDIIVI, the figures for the pKd in assay [29] (setting [42]) and in assay [30] (setting [42]) were 8.37 and 5.46, respectively.
As to YVIRDLAAM, the pKd was ≤ 4.70 in [31]; 7.64 in assay [1] (setting [43]); 7.10 in [32]; ≥ 9.00 in assay [2] (setting [43]); 6.23 in assay [33]; 6.56 in assay [34].
On to GTEKLTITY, for which the negative logarithm of the Kd (pKd) in assay [25] (setting [44]), in [5] (setting [45]), in assay [8] (setting [45]), in assay [9] (setting [45]), in assay [10] (setting [44]) and in [11] (setting [45]) was ≤ 4.70 each time. Besides, the pKd in [14] (setting [45]) is ≤ 4.70; in [3] (setting [44]), ≤ 4.70; in assay [15] (setting [45]), 8.19; in [16] (setting [45]) it was ≤ 4.70; in assay [17] (setting [44]) it was ≤ 4.70; in assay [18] (setting [45]), ≤ 4.70. Besides, the negative-log Kd (pKd) is ≤ 4.70 in assay [19] (setting [45]); ≤ 4.70 in [20] (setting [45]); ≤ 4.70 in assay [21] (setting [44]); 8.08 in assay [22] (setting [45]); ≤ 4.70 in assay [23] (setting [45]); ≤ 4.70 in assay [24] (setting [44]). The pKd in [35] and in [30] (source organism: Influenza A virus (A/duck/Hong Kong/3096/99(H6N2))) was ≤ 4.70 in each case.
As to QEPGIFCAI, the pKd was 6.30 in assay [36]; 7.98 in [29] (setting [46]); 6.94 in [37]; ≤ 4.70 in assay [30] (setting [46]); ≤ 4.70 in assay [38].
